Laboratory results as given in patent US6077680A (The University of Florida, dated 2000).
Several values for one entry are separate records, joined by “and”; a condition that tells them apart may be missing. Equal values may be shown once. Read-outs that look alike come from different tables or passages of the source. Bridges are numbered along the chain shown (N, C = ends). Where no end group is shown, it is not given here.

Assays:
[1] = target: rat brain membrane K channels (delayed rectifier, primarily Kv1.2) (rat) (UniProt P63142)
[2] = target: cloned Kv1.3 channel, wild type
cloned Kv1.1 channel [3] = target: cloned Kv1.1 channel
cloned Kv1.1 channel [4] = target: cloned Kv1.1 channel; remark: listed apart in the source
cloned Kv1.1 channel [5] = target: cloned Kv1.1 channel; remark: listed apart in the source
[6] = target: cloned Kv1.3 channel, wild type; remark: listed apart in the source
cloned Kv1.2 channel [7] = assay: block of cloned channel
[8] = target: small conductance calcium-activated potassium channel in T-cells; assay: block of channel in T-cells
cloned Kv1.1 channel [9] = assay: whole-cell patch clamp block, cell line stably expressing the channel
cloned Kv1.2 channel [10] = assay: as above
[11] = target: cloned Kv1.3 channel, wild type; assay: as above
cloned Kv1.5 channel [12] = assay: as above
cloned Kv3.1 channel [13] = assay: as above
[14] = target: rat brain membrane K channels (delayed rectifier, primarily Kv1.2) (rat) (UniProt P63142); remark: listed apart in the source
[15] = target: rat brain membrane K channels (delayed rectifier, primarily Kv1.2) (rat) (UniProt P63142); remark: listed apart in the source
[16] = target: cloned Kv1.3 channel, wild type; remark: listed apart in the source
[17] = target: cloned Kv1.3 channel, wild type; remark: listed apart in the source
cloned Kv1.2 channel [18] = target: cloned Kv1.2 channel
[19] = target: cloned Kv1.3 channel, wild type; remark: listed apart in the source
cloned Kv1.2 channel [20] = target: cloned Kv1.2 channel; remark: listed apart in the source
[21] = target: cloned Kv1.3 channel, wild type; remark: listed apart in the source
cloned Kv1.1 channel [22] = assay: block of cloned channel
[23] = target: cloned Kv1.3 channel, wild type; assay: block of cloned channel
[24] = target: cloned Kv1.3 channel, wild type; assay: patch clamp block of Kv1.3
cloned Kv1.5 channel [25] = assay: patch clamp block of cloned channel
cloned Kv3.1 channel [26] = assay: patch clamp block of cloned channel
[27] = target: cloned Kv1.3 channel, wild type; remark: listed apart in the source
[28] = target: IKCa channel of activated human T-cells (human) (UniProt O15554); assay: whole-cell patch clamp block, activated human T-cells; called Kd in paragraph 470
Kv1.3 D386K = assay: electrophysiological block of current; Kd from fraction of unblocked current
Kv1.3 D386N = assay: as above
Kv1.3 G380E = assay: as above
Kv1.3 H404L = assay: as above
Kv1.3 H404T = assay: as above
Kv1.3 H404Y = assay: as above
[29] = target: Kv1.3 channel printed as G30; assay: as above
[30] = target: rat brain membrane K channels (delayed rectifier, primarily Kv1.2) (rat) (UniProt P63142); assay: IC50 ratio on brain delayed rectifier K channels (table title); assay not given
[31] = tested on: rat brain membrane K channels (primarily Kv1.2); assay type: binding
[32] = target: Kv1.3 channels in Jurkat T lymphocytes (Homo sapiens, UniProt P22001); assay type: binding
Sequence of Kv1.3 channels in Jurkat T lymphocytes (P22001 whole entry): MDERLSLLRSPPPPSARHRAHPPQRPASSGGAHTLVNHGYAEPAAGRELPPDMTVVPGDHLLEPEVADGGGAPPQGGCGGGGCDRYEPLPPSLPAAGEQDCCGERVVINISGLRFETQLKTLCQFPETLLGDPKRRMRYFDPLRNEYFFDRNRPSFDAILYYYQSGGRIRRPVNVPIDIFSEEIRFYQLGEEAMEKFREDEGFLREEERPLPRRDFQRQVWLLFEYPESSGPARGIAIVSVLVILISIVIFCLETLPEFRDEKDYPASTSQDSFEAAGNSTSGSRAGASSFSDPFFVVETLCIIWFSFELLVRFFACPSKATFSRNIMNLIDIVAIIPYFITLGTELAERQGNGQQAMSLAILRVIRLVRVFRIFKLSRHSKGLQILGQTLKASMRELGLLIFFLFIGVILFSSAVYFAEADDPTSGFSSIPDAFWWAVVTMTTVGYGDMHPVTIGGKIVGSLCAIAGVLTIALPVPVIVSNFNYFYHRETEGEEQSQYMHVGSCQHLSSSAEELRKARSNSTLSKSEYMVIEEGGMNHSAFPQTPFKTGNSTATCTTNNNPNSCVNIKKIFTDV

Kv1.3 [33] = target: T1, Kv1.3 (Mus musculus, UniProt P16390); assay: cell-based; assay type: cell-based
T1 sequence (P16390 whole entry): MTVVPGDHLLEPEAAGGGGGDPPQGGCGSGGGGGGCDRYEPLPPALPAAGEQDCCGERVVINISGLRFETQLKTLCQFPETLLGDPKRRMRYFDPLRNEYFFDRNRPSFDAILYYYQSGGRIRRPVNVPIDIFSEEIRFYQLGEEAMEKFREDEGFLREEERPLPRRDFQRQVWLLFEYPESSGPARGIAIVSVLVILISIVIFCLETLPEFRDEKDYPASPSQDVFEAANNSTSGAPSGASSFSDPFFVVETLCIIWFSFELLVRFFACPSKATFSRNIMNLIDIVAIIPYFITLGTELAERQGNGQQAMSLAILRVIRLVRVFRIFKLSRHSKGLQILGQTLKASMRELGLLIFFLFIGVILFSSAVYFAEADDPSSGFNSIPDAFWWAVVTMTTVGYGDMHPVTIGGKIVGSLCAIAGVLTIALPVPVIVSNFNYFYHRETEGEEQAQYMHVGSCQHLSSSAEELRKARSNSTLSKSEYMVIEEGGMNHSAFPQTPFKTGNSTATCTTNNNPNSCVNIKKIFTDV

Kv1.2 = Kv1.2 (Rattus norvegicus, UniProt P63142); assay type: cell-based
Sequence of Kv1.2 (P63142 whole entry): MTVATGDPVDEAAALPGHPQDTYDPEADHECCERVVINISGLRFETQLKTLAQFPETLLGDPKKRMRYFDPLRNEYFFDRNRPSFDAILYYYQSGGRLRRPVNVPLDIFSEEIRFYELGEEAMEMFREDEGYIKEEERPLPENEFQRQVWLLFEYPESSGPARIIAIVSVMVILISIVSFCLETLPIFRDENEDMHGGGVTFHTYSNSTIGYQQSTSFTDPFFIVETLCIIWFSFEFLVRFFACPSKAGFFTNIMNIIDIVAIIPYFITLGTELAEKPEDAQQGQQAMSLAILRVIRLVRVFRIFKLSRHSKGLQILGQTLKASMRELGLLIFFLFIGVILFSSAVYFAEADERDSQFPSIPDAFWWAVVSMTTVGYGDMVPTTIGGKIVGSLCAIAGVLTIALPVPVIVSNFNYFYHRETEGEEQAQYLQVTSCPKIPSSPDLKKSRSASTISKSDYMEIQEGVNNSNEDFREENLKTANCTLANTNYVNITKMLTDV

Kv1.3 [34] = target: T1, Kv1.3; assay type: cell-based
Kv1.5 = Kv1.5 (Homo sapiens, UniProt P22460); assay type: cell-based
Sequence of Kv1.5 (P22460 whole entry): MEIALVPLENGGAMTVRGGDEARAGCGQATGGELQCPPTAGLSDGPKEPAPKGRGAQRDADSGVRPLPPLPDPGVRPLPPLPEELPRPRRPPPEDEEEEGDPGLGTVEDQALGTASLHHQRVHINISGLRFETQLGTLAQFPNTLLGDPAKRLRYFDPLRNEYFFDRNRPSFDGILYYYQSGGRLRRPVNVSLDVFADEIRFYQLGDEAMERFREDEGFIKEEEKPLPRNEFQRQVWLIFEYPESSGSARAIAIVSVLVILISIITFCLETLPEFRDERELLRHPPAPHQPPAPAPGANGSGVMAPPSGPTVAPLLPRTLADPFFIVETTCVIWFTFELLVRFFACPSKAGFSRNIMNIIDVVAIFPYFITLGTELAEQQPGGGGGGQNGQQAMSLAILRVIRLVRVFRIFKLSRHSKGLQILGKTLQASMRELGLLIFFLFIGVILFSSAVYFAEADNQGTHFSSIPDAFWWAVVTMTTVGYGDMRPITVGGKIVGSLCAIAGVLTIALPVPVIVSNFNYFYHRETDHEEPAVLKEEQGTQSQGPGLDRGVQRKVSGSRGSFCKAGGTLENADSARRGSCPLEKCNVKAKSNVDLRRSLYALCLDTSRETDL

Kv3.1 = Kv3.1 (Mus musculus, UniProt P15388); assay type: cell-based
Sequence of Kv3.1 (P15388 whole entry): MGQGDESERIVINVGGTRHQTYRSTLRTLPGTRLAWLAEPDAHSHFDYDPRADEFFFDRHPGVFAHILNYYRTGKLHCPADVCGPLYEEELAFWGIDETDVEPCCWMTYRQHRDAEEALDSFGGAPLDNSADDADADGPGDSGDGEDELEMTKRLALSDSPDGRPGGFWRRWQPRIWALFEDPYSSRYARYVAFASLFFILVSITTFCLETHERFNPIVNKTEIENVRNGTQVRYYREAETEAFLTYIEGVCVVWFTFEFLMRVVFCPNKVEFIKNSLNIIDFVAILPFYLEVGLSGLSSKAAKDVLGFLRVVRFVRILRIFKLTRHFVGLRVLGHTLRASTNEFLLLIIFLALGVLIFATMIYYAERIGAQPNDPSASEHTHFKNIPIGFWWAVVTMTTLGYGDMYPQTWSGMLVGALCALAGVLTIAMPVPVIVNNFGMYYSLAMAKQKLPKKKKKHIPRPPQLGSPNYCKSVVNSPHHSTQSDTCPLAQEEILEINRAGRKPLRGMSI

IKCa (hKCa4) = IKCa (hKCa4) (Homo sapiens, UniProt O15554); assay type: cell-based
Sequence of IKCa (hKCa4) (O15554 whole entry): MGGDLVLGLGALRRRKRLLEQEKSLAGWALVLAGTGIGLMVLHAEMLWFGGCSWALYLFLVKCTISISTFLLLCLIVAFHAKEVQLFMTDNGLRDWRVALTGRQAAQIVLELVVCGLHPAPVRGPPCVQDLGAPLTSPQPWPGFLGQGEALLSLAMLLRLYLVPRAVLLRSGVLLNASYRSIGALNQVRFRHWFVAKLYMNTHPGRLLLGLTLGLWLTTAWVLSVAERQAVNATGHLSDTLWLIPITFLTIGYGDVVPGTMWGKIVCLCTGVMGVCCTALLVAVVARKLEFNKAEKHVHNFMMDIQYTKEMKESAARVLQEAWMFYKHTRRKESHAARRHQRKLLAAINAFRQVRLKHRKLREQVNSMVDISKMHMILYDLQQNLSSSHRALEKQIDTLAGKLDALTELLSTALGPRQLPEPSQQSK

[35] = tested on: Kv1.1, Kv1.2, Kv1.5, Kv3.1, hKCa4 relative to Kv1.3; assay type: cell-based
[36] = tested on: pepsin A, pancreatic elastase, subtilisin, trypsin-chymotrypsin, thermolysin
[37] = target: Kv1.3 potassium channels in Jurkat T lymphocytes (Homo sapiens, UniProt P22001); assay type: cell-based
Sequence of Kv1.3 potassium channels in Jurkat T lymphocytes (P22001 whole entry): as the sequence (P22001 whole entry) above

Kv1.3(D386→K) = assay type: cell-based
[38] = target: T2, rat brain membrane K channels (delayed rectifier, primarily Kv1.2) (rat, UniProt P63142)
[39] = target: T3, Kv1.3 potassium channel of human T lymphocytes (human, UniProt P22001); assay: 125I-ChTX displacement, Jurkat T lymphocytes
[40] = target: T3, Kv1.3 potassium channel of human T …; assay: 125I-ChTX displacement, Jurkat T lymphocytes; remark: listed apart in the source
[41] = target: T2, rat brain membrane K channels (delayed …); assay: 125I-DTX displacement, rat brain membranes
[42] = target: T2, rat brain membrane K channels (delayed …); assay: IC50 ratio on brain delayed rectifier K channels (table title); assay not given

For ShK-K22DAP (peptide), the free energy difference of binding [1] was 2.23 kcal/mol, the half-blocking dose for Kv1.3 [2] was 28 pM and the loss of potency against Kv1.1 (cloned Kv1.1 channel [3]) was > 100 fold. For the same molecule, the potency on Kv1.1 against its potency on Kv1.3 (cloned Kv1.1 channel [4]) was 40 fold, the block of Kv1.1 current, whole-cell patch clamp (cloned Kv1.1 channel [5]) was 30 fold and the block of Kv1.3 current, whole-cell patch clamp (IC50) [6] was 0.03 nM. For the same molecule, the Kd (cloned Kv1.2 channel [7]) was 5 nM, the Kd [8] was 10 nM and the Kd (cloned Kv1.1 channel [9]) was 3 nM. The Kd (cloned Kv1.2 channel [10]) was 39 nM, the Kd [11] was 0.023 nM and the Kd (cloned Kv1.5 channel [12]) was > 100 nM. For the same molecule, the Kd (cloned Kv3.1 channel [13]) was > 100 nM.

In the case of “ShK toxin (synthetic, wild type) (peptide)”, the free energy difference of binding [14] is reported as 0 kcal/mol, the IC50 [15] is reported as 8 nM and the Kd [16] is reported as 0.6 nM and 0.3 nM. For the same molecule, the Kd [17] was 0.7 nM, the Kd (cloned Kv1.2 channel [18]) was 9 nM and the Kd [19] was 0.012 nM. It also gave a block of Kv1.2 current, whole-cell patch clamp (cloned Kv1.2 channel [20]) of 100 fold, a block of Kv1.3 current, whole-cell patch clamp (IC50) [21] of 0.012 nM and a Kd (cloned Kv1.1 channel [22]) of 0.01 nM. The Kd [23] was 0.01 nM, the Kd [24] was 0.011 nM and the Kd (cloned Kv1.5 channel [25]) was > 1000 nM. For the same molecule, the Kd (cloned Kv3.1 channel [26]) was > 1000 nM, the Kd [27] was 0.1 nM and the Kd [28] was 28 nM. For the same molecule, the Kd (Kv1.3 D386K) was 1.8 nM, the Kd (Kv1.3 D386N) was 0.4 nM and the Kd (Kv1.3 G380E) was 0.6 nM. It also gave a Kd (Kv1.3 H404L) of 3.2 nM, a Kd (Kv1.3 H404T) of 0.3 nM and a Kd (Kv1.3 H404Y) of 4 nM. It also gave a Kd [29] of 0.6 nM and a free energy difference of binding [30] of 0 kcal/mol.

In the case of `CC[C@H](C)[C@@H]1NC(=O)[C@@H](NC(=O)[C@H](CO)NC(=O)[C@@H](N)CCCNC(=N)N)CSSC[C@@H](C(=O)O)NC(=O)[C@H]([C@@H](C)O)NC(=O)CNC(=O)[C@@H]2CSSC[C@@H]3NC(=O)[C@H](CCC(N)=O)NC(=O)[C@H](Cc4ccccc4)NC(=O)[C@H](C)NC(=O)[C@H]([C@@H](C)O)NC(=O)[C@H](CSSC[C@H](NC(=O)[C@H](Cc4ccccc4)NC(=O)[C@H](CO)NC(=O)[C@H](CC(C)C)NC(=O)[C@H](CCCNC(=N)N)NC(=O)[C@H](Cc4ccc(O)cc4)NC(=O)[C@H](CCCCN)NC(=O)[C@H](CCSC)NC(=O)[C@H](CO)NC(=O)[C@H](Cc4cnc[nH]4)NC(=O)[C@H](CCCCN)NC3=O)C(=O)N[C@@H](CCCNC(=N)N)C(=O)N[C@@H](CCCCN)C(=O)N[C@@H]([C@@H](C)O)C(=O)N2)NC(=O)[C@H](CCCNC(=N)N)NC(=O)[C@H](CO)NC(=O)[C@H](CCCCN)NC(=O)[C@@H]2CCCN2C(=O)[C@H]([C@@H](C)CC)NC(=O)[C@H]([C@@H](C)O)NC(=O)[C@H](CC(=O)O)NC1=O` [ShK], the ΔF [31] is reported as 0.0, the IC50 ([31]; read-out: IC50 Rat Brain 125I-CTX) is reported as 8 nM and the “Hill coefficient, [125I]-ChTX binding” value [32] is reported as 0.89±0.17. For the same molecule, the “washout from the receptor” value (Kv1.3 [33]) was “binds almost irreversibly”, the “Kv1.2 less sensitive than Kv1.3” value (Kv1.2) was 100 fold and the “Hill coefficient, Kv1.3 block” value (Kv1.3 [34]) was “close to unity”. The “sensitivity of Kv1.5, in words” value (Kv1.5) was “resistant to the peptide”, the “sensitivity of Kv3.1, in words” value (Kv3.1) was “resistant to the peptide” and the “hKCa4 less sensitive than Kv1.3” value (IKCa (hKCa4)) was 100 fold. The “other closely related channels less sensitive than Kv1.3” value [35] was > 100 fold, the “resistance to proteolysis by porcine pepsin A, pancreatic elastase and subtilisin” value ([36]; […], 30° C., pH 3.0 (pepsin A), pH 6.5 (elastase, subtilisin)) was “completely resistant to proteolysis” and the “cleavage by trypsin-chymotrypsin mixture or thermolysin” value ([36]; pH 6.5) was “readily cleaved”.

For `CCCC[C@@H]1NC(=O)[C@H](CCSC)NC(=O)[C@H](CO)NC(=O)[C@H](Cc2c[nH]cn2)NC(=O)[C@H](CCCCN)NC(=O)[C@@H]2CSSC[C@@H]3NC(=O)[C@H]([C@@H](C)O)NC(=O)[C@H](CCCCN)NC(=O)[C@H](CCCNC(=N)N)NC(=O)[C@H](CSSC[C@H](NC(=O)[C@H](CCCNC(=N)N)NC(=O)[C@H](CO)NC(=O)[C@H](CCCCN)NC(=O)[C@@H]4CCCN4C(=O)[C@H]([C@@H](C)CC)NC(=O)[C@H]([C@@H](C)O)NC(=O)[C@H](CC(=O)O)NC(=O)[C@H]([C@@H](C)CC)NC(=O)[C@@H](NC(=O)[C@H](CO)NC(=O)[C@@H](N)CCCNC(=N)N)CSSC[C@@H](C(=O)O)NC(=O)[C@H]([C@@H](C)O)NC(=O)CNC3=O)C(=O)N[C@@H]([C@@H](C)O)C(=O)N[C@@H](C)C(=O)N[C@@H](Cc3ccccc3)C(=O)N[C@@H](CCC(N)=O)C(=O)N2)NC(=O)[C@H](Cc2ccccc2)NC(=O)[C@H](CO)NC(=O)[C@H](CC(C)C)NC(=O)[C@H](CCCNC(=N)N)NC(=O)[C@H](Cc2ccc(O)cc2)NC1=O` [K22Nle], the “Equipotent Molar Ration (Analog IC50 /ShK IC50) Rat brain” value [31] was > 250, the “IC50 Ratio” value [31] was > 250 and the ΔF [31] was > 3.23. The “Equipotent Molar Ration (Analog IC50 /ShK IC50) Lymphocyte” value [37] was > 23, the “reduction of affinity (IC50) for Kv1.3 relative to ShK toxin” value [37] was “more than 23 fold” and the “ΔΔG (coupling energy), mutant cycle” value (Kv1.3(D386→K)) was 0.053 kcal/mol.

With RSCIDTIPKSRCTKFQCDHSMKYRLSFCRKTCGTC (lactam 14-18; ends not checked) [ShK analog 106, Lactam Bridge (K14 -D18)] the “IC50 ratio (analog IC50/ShK IC50)” value [38] was 1.63 ratio.

With RSCIDTIPKSRCTAFQCKHSMKYRLSFCRKTCGTC [ShK toxin (synthetic, wild type)] the IC50 [39] was 0.032 nM and the IC50 [40] was 0.04 nM.

In the case of Ac-RSCIDTIPKSRCTAFQCKHSMKYRLSFCRKTCGTC (ends and bridges not checked) [N-alpha-acetyl ShK toxin], the “IC50 ratio (analog IC50/ShK IC50)” value [41] is reported as 1 ratio and the “IC50 ratio (analog IC50/ShK IC50)” value [42] is reported as 1 ratio.
